test system: T1, Zur (Pseudomonas aeruginosa), ORF:f39b2fc0; test: EMSA; conditions: EMSA: 30 ng DNA, 500 nM Zur, 5X Zn-less binding buffer (50 mM Tris, 200 mM KCl, 50 mM MgCl2, 5 mM DTT, 25% glycerol; 5X [sic], pH not given), 5 uM ZnCl2 …
T1 sequence: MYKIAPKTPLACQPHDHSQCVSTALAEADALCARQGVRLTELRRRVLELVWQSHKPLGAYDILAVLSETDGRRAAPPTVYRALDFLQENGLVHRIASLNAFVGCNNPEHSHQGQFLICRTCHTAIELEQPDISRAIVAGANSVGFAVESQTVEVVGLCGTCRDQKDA

binding, binds:
ACTTTCCCGTTCCTCTTCGCCGGCAGGCATGCGGACATTGCCGCTGCACGTCGGCACGACGCCATGCAGAGTGGCTACGCGGGTCTACCGACACAAAAAGAAATAATATAACATCCCAATAAATACGCCGATCCGACCCCGTCGCCCTTCCTCCGGGAAGGGCCTGGGTTCGCTTTGGCCTGAAAAAAGTCCGACCCA (double strand) [pznuD]
GGCTGGGCTGGTCGTCGGAAAAGAGGGATGAGTATCACAGCCTGGCGGCGAGAAGCGAGATAGAGCCGGGCATTGTATTGCGAGGCCGGAATCGAACTGGTAGCGTTATAGTATATCATTTCTTTTCTGGTGCGATTTCCCATGAGAGTCAGTGTGTCGCTTGTCCTCGGTGTCGGCCTCGGTTGCAGCAGTCCGGCGCTCTGGGCGGAAACGGAAAGTCCCGCGG (double strand) [pzrmA]
AGAAGTCCTGCTGGGCTTCGTCCATGTAGGCAGCGTCGGGCTGGGCAAGCAGTTCCTGTTCGGTCATGGGCTGAACCTGGGAAATTTAAAACGTTATACTATAACAATTAACACCACAATCGATGGCCCGCCAATCGCCTTCCGGCTACCCTGGGCCCACGTCATCCCGGGATCCACCGATGCGCCGCGTCCTCCGCCTTTACT (double strand) [pdksA2]
ATGGGCCTGGGCGGCGAACGGCAGCAAGACGAGGGCTAACAGCAGTGGGCGCATGAACGGGACTCCGGCAAGGAAGGAAAAGAGTTTGTTACGTTATAACGAATTTTTCCGCCTGCCTAGCCTGGCCGATTTGGCCCCTACGCGCCGACGTGGGAGCATGGCGCGATTCGCTTGTGGAGAAAC (double strand) [pPA4063]
GAGCGCCATGATCTGCTCGGTTGCGGTCATCTTTCCTCCTGGGGGGCATGCCCGGTTGAGAGTGGGGTCCTGTGCTTCGAGGGATACGGCGAGCGAGACGTTCCCTCGCCTCGATGAAGAAGAAACGGCGGGCATTCTTCATTCGAAGAAATGTTATGTTATAACTTATAAGTATTTATAATTCATACCTGCCGACCATGACCCCCCATTCCTCCCCGCACCGTCTTCCTCCGCTGCGGCTGGCCCGCGCCGTGCCGTTCCTCTACCTGCTTC (double strand) [pPA1922]
CATAGCAGGCCGGCGTGAAGAAAATGTGATGACCCGGGAAGCTGCGCCAGGGCGTGGGGTCCGGCGAAGAAAGACTGCACAAGCGAATTGTTATAGTATAACATTTTATTCAATCCAGATCGTTCAAGGCTTGACTGGAAACGGTGCGGATGTTCCCATCCGGCCCGTTCCAGGTGCCTCCTGCCGCCGCGCAGGAGGTGAAACGGGAAGCCGGTGCGTCACTTCGGTGA (double strand) [pPA2911]
GTGCTGCACACAGACTCTCGTCTTCCAGTCAAGAGCCTTGGGATGCAGACTGTTTTTCAAATCATGACAACTTCTTAACGCGCATTGTTATAAAGTTGCGGGCGTTTGCGCCGGCCTGGCCGGTACCTTCGAGTTTTGCCTGGAGTGAAGATGAGAGTCGACCTGGAC (double strand) [pPA2439]
CTCTGCCAGACCAGTTCCAGCACGCGCCGCCGCAGTTCGGTCAGGCGCACGCCCTGGCGCGCGCACAGCGCATCGGCCTCGGCCAGCGCGGTGCTGACGCACTGGCTGTGGTCATGGGGCTGGCAGGCCAGCGGGGTCTTGGGCGCAATCTTGTACATGGGCTGCGACGCTCGAGGGTAGAGACGTTATTATATTACCCGCTAACCACCTTTCA (double strand) [pznuA]
TCGAGCAGCCGAATGGTCGCCGGGAACTCTTTCCGGAGTTGCGAATTATTCTTATCGGAGTAATATGTAACTATATAACATTATGTAGGAGGCATCCCCATGAAACCCGGCATCCATCCCGAATACCGTCCCGTCCTGTTCCATGACACCTCGGCCGACGTGTACTTCCTGATCGGCTCCACC (double strand) [prpmE2]
